Molecular target: Rabbit anti-human MDL-1 polyclonal antibodies
Assay: cell-based or functional assay

B1: human MDL-1 extracellular domain protein expressed in baculovirus (receptor)
chain: PQIFNKSNDGFTTTRSYGTVSQIFGSSSPSPNGFITTRSYGTVCPKDWEFYQARCFFLSTSESSWNESRDFCKGKGSTLAIVNTPEKLKFLQDITDAEKYFIGLIYHREEKRWRWINNSVFNGNVTNQNQNFNCATIGLTKTFDAASCDISYRRICEKNAK
B1 was tested, and the “IC50 for inhibition of α-hMDL-1 pAb-induced β-galactosidase reporter signaling in the CD3zH912Z1 line” value was 0.1 nM.
